Assays:
CD3抗原 (SEQ ID NO:1 合成多肽) = biological target: T1, CD3抗原 (SEQ ID NO:1 合成多肽); test: ELISA screening of hybridoma clones on CD3 antigen (SEQ ID NO:1)
T1 construct: KLH/OVA conjugation is stated for immunisation only; also called CD3的多肽
T1 peptide: KGQRDLYSGLNQRRI

CD3蛋白 (表达CD3蛋白的细胞) = biological target: T2, CD3蛋白 (表达CD3蛋白的细胞); test: flow cytometry on CD3-expressing cells, against blank control without antibody
T2 construct: whole, on cells; also called 表达CD3蛋白细胞
T2 sequence (P07766 23-207): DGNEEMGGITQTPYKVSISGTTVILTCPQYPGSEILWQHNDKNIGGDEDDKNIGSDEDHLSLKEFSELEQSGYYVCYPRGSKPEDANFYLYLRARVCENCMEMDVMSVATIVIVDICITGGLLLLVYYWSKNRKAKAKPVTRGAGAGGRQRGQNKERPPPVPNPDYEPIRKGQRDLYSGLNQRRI

- binding result (CD3抗原 (SEQ ID NO:1 合成多肽)): binds
- fold increase of MFI over blank control (CD3蛋白 (表达CD3蛋白的细胞)): 1070 fold
B1: 230B2F6抗CD3重组兔单克隆抗体 (antibody, V domains shown)
VH: QSLEESGGRLVTPGTPLTLTCTASGFSLNDYWMSWVRQAPGKGLEWIGIIIRGGTTWYANWVKGRFTISKTSTTVDLKMTSPTTEDTATYFCARIGGGNTGFNLWGPGTLVTVSS
VL: AQVLTQTPSSVSEPVGGTVTINCQASENIYISLAWYQQKPGQPPNLLIYDASDLASGVPSRFSGSGSGTEFTLTISGVQCEDAATYYCQSYNYSSVTFGGGTEVVVK
notes: also called 230B2F6抗体; 230B2F6抗CD3单克隆抗体
